Experimental data: patent US12383631B2, “Immune antigen specific IL-18 immunocytokines and uses thereof” (Bright Peak Therapeutics AG, priority 2022, dated 2025)

Experiments:
human PD-L1/B7-H1 = human PD-L1/B7-H1 (Homo sapiens, UniProt Q9NZQ7); test: PD-L1 binding ELISA (Example 5); settings: coated antibody or immunocytokine, biotinylated human PD-L1/B7-H1
Method: The interaction of the unmodified antibodies and corresponding IL-18 immunocytokines with relevant immune cell associated antigen are measured by ELISA assay. For these studies, Corning high-binding half-area plates (Fisher Scientific, Reinach, Switzerland) are coated overnight at 4° C. with 25 μl of unmodified antibodies corresponding IL-18 immunocytokines at 5 μg/ml in PBS. Plates are then washed four times with 100 μl of PBS-0.02% Tween20. Plate surfaces are blocked with 25 μl of PBS-0.02% Tween20-1% BSA at 37° C. during 1 h. Plates are then washed four times with 100 μl of PBS-0.02% Tween20. […] Plates are then washed four times with 100 μl of PBS-0.02% Tween20. Twenty-five microliters of Streptavidin-Horseradish peroxidase (#RABHRP3, Merck, Buchs, Switzerland) diluted at 1:500 into PBS-0.02% Tween20-0.1% BSA are added to each well and incubated at Room Temperature during 30 min. Plates are then washed four times with 100 μl of PBS-0.02% Tween20. Fifty microliters of TMB substrate reagent (#CL07, Merck, Buchs, Switzerland) are added to each well and incubated at 37° C. during 5 min. After 5 min at 37° C., Horseradish peroxidase reaction is stopped by adding 50 μl/well of 0.5M H2SO4 stop solution. ELISA signal is then measured at 450 nm on an ENSPTRE® plate reader from Perkin Elmer (Schwerzenbach, Switzerland).

[1] = target: human Fc gamma receptor I (FcγRI/CD64) (Homo sapiens, UniProt P12314); test: Human FcγR binding ELISA, FcγRI (Example 8); settings: antibody coated on plate, soluble receptor titrated, read-out: FcγRI/(CD64) binding affinity
Method: (§1) The interaction of the unmodified and of conjugated antibodies with human Fc gamma receptors I (FcγRI/CD64), with human Fc gamma receptors IIa (FcγRIIa/CD32a), with inhibitory human Fc gamma receptors IIb (FcγRIIb/CD32b), and with human Fc gamma receptors III FcγRIIIa/CD16 were measured by ELISA.
(§2) Briefly, Corning high-binding half-area plates (Fisher Scientific, Reinach, Switzerland) were coated overnight at 4° C. with 25 μl of unmodified and of conjugated anti-PD1 antibodies at 2.5 μg/ml in PBS. Plates were then washed four times with 100 μl of PBS-0.02% Tween20. Plates surfaces were blocked with 25 μl of PBS-0.02% Tween20-1% BSA at 37° C. during 1 h. Plates were then washed four times with 100 μl of PBS-0.02% Tween20. Then twenty-five microliters of either recombinant Human Fc gamma RI/CD64 Protein (R&D systems, 1257-FC-050, CF), recombinant Human Fc gamma RIIA/CD32a (H167) Protein (R&D systems, 9595-CD-050, CF), recombinant Human Fc gamma RIIB/CD32b Avi-tag Protein (R&D systems, AVI1875-050, CF), or recombinant Human Fc gamma RIIIA/CD16a Protein (R&D systems, 4325-FC-050; CF) were added in five-fold serial dilutions ranging from 1000 nM to 0.001 nM into PBS-0.02% Tween20-0.1% BSA and incubated at 37° C. during 2 h. Plates were then washed four times with 100 μl of PBS-0.02% Tween20. Twenty-five microliters of a 1/500 HRP-anti-His antibody in PBS—0.02% Tween20-0.1% BSA (R&D systems, anti-HIS—HRP Ab, #MAB050H) were added to each well and plates were incubated at Room Temperature during 1 h. Plates were then washed four times with 100 μl of PBS-0.02% Tween20. Fifty microliters of TMB substrate reagent (#CL07, Merck, Buchs, Switzerland) were added to each well and incubated at 37° C. during 5 min. After 5 min at 37° C., Horseradish peroxidase reaction was stopped by adding 50 μl/well of 0.5M H2SO4 stop solution. ELISA signal was then measured at 450 nm on an EnSpire plate reader from Perkin Elmer (Schwerzenbach, Switzerland).

[2] = target: T1, human Fc gamma receptor IIa (FcγRIIa/CD32a) (Homo sapiens, UniProt P12318); test: Human FcγR binding ELISA, FcγRIIa (Example 8); settings: antibody coated on plate, soluble receptor titrated, read-out: FcγRIIa (CD32a) binding affinity
T1 sequence (P12318 36-218): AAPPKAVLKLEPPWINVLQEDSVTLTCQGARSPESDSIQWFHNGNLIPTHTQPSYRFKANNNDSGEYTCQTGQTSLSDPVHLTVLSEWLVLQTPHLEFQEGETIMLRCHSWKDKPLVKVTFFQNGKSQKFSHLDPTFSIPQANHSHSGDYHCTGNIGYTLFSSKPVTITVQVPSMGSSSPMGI
Method: as §1, §2

[3] = target: T2, human Fc gamma receptor IIb (FcγRIIb/CD32b) (Homo sapiens, UniProt P31994); test: Human FcγR binding ELISA, FcγRIIb (Example 8); settings: antibody coated on plate, soluble receptor titrated, read-out: FcγRIIb (CD32b) binding affinity
T2 sequence (P31994 43-310): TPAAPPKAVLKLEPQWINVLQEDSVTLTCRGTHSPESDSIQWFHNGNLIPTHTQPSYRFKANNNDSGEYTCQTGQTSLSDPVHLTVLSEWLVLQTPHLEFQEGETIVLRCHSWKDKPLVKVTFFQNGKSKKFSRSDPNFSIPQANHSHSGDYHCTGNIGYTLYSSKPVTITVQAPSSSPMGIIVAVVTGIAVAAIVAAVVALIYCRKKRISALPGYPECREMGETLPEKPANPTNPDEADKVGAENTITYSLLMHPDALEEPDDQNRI
Method: as §1, §2

[4] = target: human Fc gamma receptor III FcγRIIIa/CD16; test: Human FcγR binding ELISA, FcγRIIIa (Example 8); settings: antibody coated on plate, soluble receptor titrated, read-out: FcγRIIIa (CD16) binding affinity
Method: as §1, §2

[5] = target: human neonatal Fc receptor (FcRn) (Homo sapiens, UniProt P55899); test: Human FcRn binding AlphaLISA at pH 6 (Example 9); settings: AlphaLISA competition
Method: The interaction of the unmodified and of conjugated anti-PD1 antibodies with the human neonatal Fc receptor (FcRn) at pH 6 was measured using the AlphaLISA® Human FcRn Binding Kit (AL3095C) from Perkin Elmer (Schwerzenbach, Switzerland). […] When reference IgG binds to FcRn, donor and acceptor beads come into proximity enabling the transfer of singlet oxygen that trigger a cascade of energy transfer reactions in the acceptor beads, resulting in a sharp peak of light emission at 615 nm. Addition of a free IgG antibodies into the AlphaLISA® mixture creates a competition for the binding of FcRn to the reference antibody resulting in a loss of signal.
After 90 min at 23° C. in the dark, AlphaLISA® signal was measured on an EnSpire plate reader (Excitation at 680 nm, Emission at 615 nm) from Perkin Elmer (Schwerzenbach, Switzerland).

human Fc gamma receptor III FcγRIIIa/CD16, sequence (P08637 17-254): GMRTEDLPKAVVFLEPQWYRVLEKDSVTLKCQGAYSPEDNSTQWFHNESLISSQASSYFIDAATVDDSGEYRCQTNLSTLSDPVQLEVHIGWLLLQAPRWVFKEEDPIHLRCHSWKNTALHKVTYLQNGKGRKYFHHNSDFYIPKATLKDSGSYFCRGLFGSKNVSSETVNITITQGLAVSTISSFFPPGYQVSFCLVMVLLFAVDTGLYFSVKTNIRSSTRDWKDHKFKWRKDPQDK
human Fc gamma receptor I (FcγRI/CD64), sequence (P12314 16-374): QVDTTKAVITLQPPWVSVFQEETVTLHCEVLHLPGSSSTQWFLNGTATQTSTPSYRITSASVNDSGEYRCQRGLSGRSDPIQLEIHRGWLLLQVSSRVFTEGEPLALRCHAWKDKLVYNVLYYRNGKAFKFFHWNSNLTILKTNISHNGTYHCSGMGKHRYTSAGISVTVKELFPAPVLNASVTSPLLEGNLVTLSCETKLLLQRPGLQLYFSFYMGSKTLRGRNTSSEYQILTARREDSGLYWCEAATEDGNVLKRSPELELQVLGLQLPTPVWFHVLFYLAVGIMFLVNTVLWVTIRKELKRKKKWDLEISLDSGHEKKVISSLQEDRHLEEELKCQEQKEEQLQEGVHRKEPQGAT
human PD-L1/B7-H1, sequence (Q9NZQ7 19-290): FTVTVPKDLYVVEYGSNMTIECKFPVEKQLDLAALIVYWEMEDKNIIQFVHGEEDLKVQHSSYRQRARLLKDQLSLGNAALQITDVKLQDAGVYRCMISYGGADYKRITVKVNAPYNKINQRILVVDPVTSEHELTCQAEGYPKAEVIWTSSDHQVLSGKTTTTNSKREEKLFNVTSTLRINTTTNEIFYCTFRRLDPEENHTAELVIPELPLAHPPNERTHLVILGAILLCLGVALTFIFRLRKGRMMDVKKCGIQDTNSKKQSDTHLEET
human neonatal Fc receptor (FcRn), sequence (P55899 24-297): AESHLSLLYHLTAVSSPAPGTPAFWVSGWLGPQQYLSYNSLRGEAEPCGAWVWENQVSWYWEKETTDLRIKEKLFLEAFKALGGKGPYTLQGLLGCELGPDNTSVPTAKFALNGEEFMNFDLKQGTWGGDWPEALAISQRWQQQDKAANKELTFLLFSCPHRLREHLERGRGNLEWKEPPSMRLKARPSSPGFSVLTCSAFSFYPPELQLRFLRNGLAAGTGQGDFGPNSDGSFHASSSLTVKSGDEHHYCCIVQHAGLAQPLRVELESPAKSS
human neonatal Fc receptor (FcRn), sequence (P61769 21-119 partner): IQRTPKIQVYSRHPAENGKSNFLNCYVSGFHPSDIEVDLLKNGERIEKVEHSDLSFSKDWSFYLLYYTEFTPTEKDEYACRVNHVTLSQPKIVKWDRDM

In the case of “Atezolizumab/Tecentriq: anti-PD-L1 antibody, unconjugated reference antibody [reference compound]”, the Kd (human PD-L1/B7-H1) is reported as 0.443 nM, the Kd [1] is reported as 9.17 nM and the Kd [2] is reported as 1370 nM. For the same substance, the Kd [3] was > 10000 nM, the Kd [4] was 356 nM and the Kd [5] was 6.4 nM.
For “Composition B: immunocytokine: Atezolizumab/Tecentriq (anti-PD-L1) conjugated to IL-18 polypeptide SEQ ID NO: 30”, the Kd [1] was 10.8 nM, the Kd [2] was 1740 nM and the Kd [3] was > 10000 nM. It also gave a Kd [4] of 492 nM.
With “LZM-009: anti-PD-1 antibody (VH SEQ ID NO: 376, VL SEQ ID NO: 377), unconjugated reference antibody [reference compound]” the Kd (human PD-L1/B7-H1) was > 100 nM, the Kd [1] was 0.315 nM and the Kd [2] was 1350 nM. The Kd [3] was 2630 nM, the Kd [4] was 1710 nM and the Kd [5] was 6 nM.
